Laboratory results reported in the supplement of paper PMC9233669.
Fewer inactive variants are shown than the library holds.

Legend:
biotinyl-Phe-oxazolone = assay: self-aminoacylation, catalytic enhancement (BFO) (fold over background); higher = more active; k-Seq, kA / k0A0; sequences stand for … in GGGAAUGGAUCCACAUCUACGAAUUC…UUCACUGCAGACUUGACGAAGCUG
Method in brief: (§1)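 Mutagenized RNA pools with a 21-nt variable region (0.43 μM) were reacted with each biotinyl-aminoacyl-oxazolone at 2–1250 μM for 90 minutes at room temperature, in 50 μL HEPES/NaCl/KCl/MgCl2/CaCl2 buffer containing 5% acetonitrile at pH 6.9–7.0. RNA captured on streptavidin was quantified by triplicate qPCR and by Illumina sequencing. The fraction reacted for each sequence was fit to a pseudo-first-order model with bootstrapping, and catalytic enhancement is the median kA divided by the uncatalyzed rate, taken as the low-activity peak of a bimodal Gaussian fit.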

biotinyl-Ile-oxazolone = assay: self-aminoacylation, catalytic enhancement (BIO) (fold over background); higher = more active; k-Seq, kA / k0A0; sequences stand for … in GGGAAUGGAUCCACAUCUACGAAUUC…UUCACUGCAGACUUGACGAAGCUG
Method in brief: as §1

biotinyl-Met-oxazolone = assay: self-aminoacylation, catalytic enhancement (BMO) (fold over background); higher = more active; k-Seq, kA / k0A0; sequences stand for … in GGGAAUGGAUCCACAUCUACGAAUUC…UUCACUGCAGACUUGACGAAGCUG
Method in brief: as §1

biotinyl-Val-oxazolone = assay: self-aminoacylation, catalytic enhancement (BVO) (fold over background); higher = more active; k-Seq, kA / k0A0; sequences stand for … in GGGAAUGGAUCCACAUCUACGAAUUC…UUCACUGCAGACUUGACGAAGCUG
Method in brief: as §1

biotinyl-Leu-oxazolone = assay: self-aminoacylation, catalytic enhancement (BLO) (fold over background); higher = more active; k-Seq, kA / k0A0; sequences stand for … in GGGAAUGGAUCCACAUCUACGAAUUC…UUCACUGCAGACUUGACGAAGCUG
Method in brief: as §1

biotinyl-Trp-oxazolone = assay: self-aminoacylation, catalytic enhancement (BWO) (fold over background); higher = more active; k-Seq, kA / k0A0; sequences stand for … in GGGAAUGGAUCCACAUCUACGAAUUC…UUCACUGCAGACUUGACGAAGCUG
Method in brief: as §1

Sequence | self-aminoacylation (biotinyl-Phe-oxazolone) | self-aminoacylation (biotinyl-Ile-oxazolone) | self-aminoacylation (biotinyl-Met-oxazolone) | self-aminoacylation (biotinyl-Val-oxazolone) | self-aminoacylation (biotinyl-Leu-oxazolone) | self-aminoacylation (biotinyl-Trp-oxazolone)
AUUGACUUAGGUCAUCGGGUG [Fam2.2 aminoacylation ribozyme variant] | 39.1 | 3.47 | 5.25 | 3.95 | 6.27 | 5.77
ACAACCCUGGUCAUCGAGUGA [Fam2.1 aminoacylation ribozyme variant] | 17.4 | 6.16 | 11.4 | 5.2 | 12.2 | 12.5
CUUCACCUAGGGCAUCGGGUG [Fam2.2 aminoacylation ribozyme variant] | 17.5 | 2.75 | 2.91 | 3.04 | 3.99 | 4.25
AUUCACCUAGGUCGUCGGGCG [Fam2.2 aminoacylation ribozyme variant] | 15.2 | 3.39 | 2.56 | 3.2 | 4.5 | 2.76
AUUGACCUAGGUCAUUGGGUG [Fam2.2 aminoacylation ribozyme variant] | 14.7 | 2.82 | 2.54 | 2.33 | 2.94 | 3.59
CUACUUGAACCAAUCGGUCUG [Fam1A.1 aminoacylation ribozyme variant] | 0.74 | 0.821 | 0.841 | 0.879 | 0.941 | 0.582
AUUACCCAGGUCAACGAGUGA [Fam2.1 aminoacylation ribozyme variant] | 24.9 | 3.57 | 7.03 | 3.76 | 6.2 | 7.71
AUUCACCUAGGUUACCGGGUG [Fam2.2 aminoacylation ribozyme variant] | 18.5 | 2.49 | 3.68 | 2.63 | 3.98 | 3.78
AAGCUUGCUAAUAGACGCAAG [Fam3.1 aminoacylation ribozyme variant] | 1.7 | 0.821 | 1.51 | 0.9 | 0.763 | 0.574
AUUACCCUGGUCAUCAAUUGA [Fam2.1 aminoacylation ribozyme variant] | 0.681 | 0.823 | 0.948 | 0.92 | 0.963 | 0.826
AAGUUUACUAAUAGUCUCAAG [Fam3.1 aminoacylation ribozyme variant] | 2.39 | 1.15 | 0.844 | 1.29 | 1.11 | 1.23
CCACGCUUCCAGCAAUCGGUC [Fam1B.1 aminoacylation ribozyme variant] | 0.836 | 1.11 | 0.936 | 1.11 | 1.05 | 1.12
AUUCACCUAGGUCAUCGACUG [Fam2.2 aminoacylation ribozyme variant] | 0.459 | 0.564 | 0.561 | 0.6 | 0.553 | 0.318
CUACUUCAAAAAAUCGGUCUA [Fam1A.1 aminoacylation ribozyme variant] | 4.37 | 0.842 | 0.725 | 0.697 | 0.79 | 2.39
AAGUUUGGUUAUAGUCGCAAG [Fam3.1 aminoacylation ribozyme variant] | 2.69 | 1.7 | 1.23 | 1.39 | 1.38 | 1.46
ACUCACCUAGGUCAUCGGGAG [Fam2.2 aminoacylation ribozyme variant] | 1.04 | 2.33 | 2.48 | 2.08 | 2.28 | 2.46
CUUCACCUAGGUCAUCUGGUG [Fam2.2 aminoacylation ribozyme variant] | 4.76 | 1.58 | 1.79 | 1.74 | 2.25 | 2.15
CCACUUCAAACAAUCGGUCUG [Fam1A.1 aminoacylation ribozyme variant] | 114 | 1.51 | 1.76 | 1.63 | 2.75 | 49.3
AUUGCCCUGGUCAUCGGGUGA [Fam2.1 aminoacylation ribozyme variant] | 317 | 23.1 | 58.1 | 30 | 67.3 | 73.4
AUUGCCCUGGUGAUCGAGUGA [Fam2.1 aminoacylation ribozyme variant] | 36.1 | 2.77 | 5.63 | 2.82 | 5.06 | 6
CGCCUUCAAACAAUCGGUCUG [Fam1A.1 aminoacylation ribozyme variant] | 146 | 1.59 | 1.94 | 1.8 | 3.13 | 55.5
AUUCACCCAGGUGAUCGGGUG [Fam2.2 aminoacylation ribozyme variant] | 25.7 | 3.64 | 4.45 | 3.59 | 3.44 | 4.5
CUCCUUCAAACAAUCGGUCUC [Fam1A.1 aminoacylation ribozyme variant] | 40.8 | 1.11 | 1.19 | 0.933 | 1.75 | 26.2
AGUCACCUAGAUCAUCGGGUG [Fam2.2 aminoacylation ribozyme variant] | 17.5 | 3.96 | 3.33 | 3.06 | 3.5 | 4.5
CCACACUUCAGGCCAUCGGUC [Fam1B.1 aminoacylation ribozyme variant] | 7.44 | 2.37 | 1.94 | 2.49 | 1.77 | 1.69
CCACACUUCACACAAUCGGUC [Fam1B.1 aminoacylation ribozyme variant] | 0.775 | 0.878 | 0.601 | 1.02 | 0.687 | 0.837

Sequence | self-aminoacylation (biotinyl-Phe-oxazolone) | self-aminoacylation (biotinyl-Ile-oxazolone) | self-aminoacylation (biotinyl-Met-oxazolone) | self-aminoacylation (biotinyl-Val-oxazolone) | self-aminoacylation (biotinyl-Leu-oxazolone) | self-aminoacylation (biotinyl-Trp-oxazolone)
CUACAUCAAACAAUCGGUUUG [Fam1A.1 aminoacylation ribozyme variant] | 1.9 | 0.906 | 0.646 | 0.821 | 0.781 | 1.05
AUUCACAUAGGUCAUCGGGUC [Fam2.2 aminoacylation ribozyme variant] | 0.659 | 1.51 | 1.39 | 1.65 | 1.34 | 1.49
CUCCUUCAAACAAUCGUUCUG [Fam1A.1 aminoacylation ribozyme variant] | 1.68 | 0.51 | 0.501 | 0.631 | 0.472 | 0.785
GCACACUUCAAGCAAUCGCUC [Fam1B.1 aminoacylation ribozyme variant] | 12.2 | 3.18 | 2.84 | 2.92 | 2.82 | 4.76
CCACACUGCAAGCAAGCGGUC [Fam1B.1 aminoacylation ribozyme variant] | 1.05 | 1.34 | 0.878 | 1.61 | 1.23 | 1
UUCCACCUAGGUCAUCGGGUG [Fam2.2 aminoacylation ribozyme variant] | 48.6 | 5.71 | 7.25 | 5.42 | 7.41 | 7.67
AUUCCCCUAGGUCAUCGGGUA [Fam2.2 aminoacylation ribozyme variant] | 58.9 | 7.47 | 7.28 | 7.57 | 8.16 | 10.2
AAGUUUGCUAAUAGUCGAAAU [Fam3.1 aminoacylation ribozyme variant] | 1.52 | 1.31 | 1.39 | 1.37 | 1.01 | 2
ACUACACUGGUCAUCGAGUGA [Fam2.1 aminoacylation ribozyme variant] | 13.7 | 3.3 | 4.45 | 3 | 4.81 | 5.78
CUACUUCAAACAAUAGUUCUG [Fam1A.1 aminoacylation ribozyme variant] | 0.553 | 0.624 | 0.53 | 0.511 | 0.532 | 0.325
ACUCACCUAGGUCAUCGGGCG [Fam2.2 aminoacylation ribozyme variant] | 2.07 | 3.12 | 2.66 | 2.63 | 3.85 | 2.63
AAGUUUGCUAAUAGUCGCAGG [Fam3.1 aminoacylation ribozyme variant] | 2.2 | 1.29 | 1.31 | 1.31 | 1.38 | 1.45
CUACUUCAAACUAUCGGUCGG [Fam1A.1 aminoacylation ribozyme variant] | 0.997 | 1.05 | 1.02 | 0.893 | 1.01 | 1.05
CCACACUUCAGGCAUUCGGUC [Fam1B.1 aminoacylation ribozyme variant] | 1.09 | 2.2 | 1.88 | 2.48 | 2.2 | 2.27
CCACAUUUCAAUCAAUCGGUC [Fam1B.1 aminoacylation ribozyme variant] | 12.7 | 1.14 | 1.09 | 1.14 | 1.07 | 6.51
AUUCACCUAAGUCAUCAGGUG [Fam2.2 aminoacylation ribozyme variant] | 11 | 2.23 | 3.1 | 2.07 | 3.53 | 3.31
AUUCACCUAGGGCCUCGGGUG [Fam2.2 aminoacylation ribozyme variant] | 20.3 | 2.37 | 3.51 | 2.66 | 3.89 | 3.99
AUUCACCUUGGUCAUCGCGUG [Fam2.2 aminoacylation ribozyme variant] | 117 | 8.37 | 15.3 | 8.42 | 18.2 | 14.1
AUUACCCAGGUCAUCGAGUAA [Fam2.1 aminoacylation ribozyme variant] | 1.09 | 1.49 | 1.54 | 1.06 | 1.16 | 1.57
CGACUUCAAACACUCGGUCUG [Fam1A.1 aminoacylation ribozyme variant] | 2.7 | 1.33 | 1.61 | 1.52 | 1.39 | 2.31
CUACUCCUAACAAUCGGUCUG [Fam1A.1 aminoacylation ribozyme variant] | 0.659 | 0.748 | 0.504 | 0.774 | 0.667 | 0.441
ACUACCCUGGUCAUCGAGUGG [Fam2.1 aminoacylation ribozyme variant] | 110 | 7 | 20.8 | 8.27 | 22.5 | 20.2
AUUACCCUGGACAUCGAAUGA [Fam2.1 aminoacylation ribozyme variant] | 0.708 | 1.23 | 0.846 | 0.895 | 0.96 | 0.378
ACGUAUGCUAAUAGUCGCAAG [Fam3.1 aminoacylation ribozyme variant] | 1.96 | 1.61 | 1.35 | 1.43 | 1.72 | 1.29
AUUCACCUAGUUCCUCGGGUG [Fam2.2 aminoacylation ribozyme variant] | 19.7 | 2.06 | 2.42 | 2.06 | 3.31 | 2.63
